Test results from the supplement of paper PMC9112550, “Optimization of the antimicrobial peptide Bac7 by deep mutational scanning” (BMC Biology, 2022).

System: Escherichia coli TOP10
Experiment: shrunken log2 fold change of peptide-encoding DNA abundance (4.5 h post-induction vs induction); higher = less antimicrobial activity (less host growth inhibition)
Conditions: time post-induction: 4.5 h; library: site-saturation at positions 5, 18, 19, 20
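Further: peptides expressed intracellularly from a pBAD plasmid library in pooled LB shake-flask culture, induced with 0.3% L-arabinose, DNA abundance read by NGS, three biological replicates, DESeq2 with apeglm shrinkage.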

In the case of RRIRARPPRLPRPRPRPSEQPRP, the “shrunken log2 fold change” value is reported as 0.248.
For RRIRIRPPRLPRPRPRPLTAPRP, the “shrunken log2 fold change” value was 0.00505.
With RRIRVRPPRLPRPRPRPMRGPRP the “shrunken log2 fold change” value was 0.444.
In the case of RRIRLRPPRLPRPRPRPEPIPRP, the “shrunken log2 fold change” value is reported as 0.0321.
For RRIRRRPPRLPRPRPRPGITPRP, the “shrunken log2 fold change” value was -0.0143.
With RRIRARPPRLPRPRPRPWDLPRP the “shrunken log2 fold change” value was 0.612.
RRIRPRPPRLPRPRPRPKITPRP was tested, and the “shrunken log2 fold change” value was -0.105.
With RRIRCRPPRLPRPRPRPHLMPRP the “shrunken log2 fold change” value was -0.223.
With RRIRDRPPRLPRPRPRPSEPPRP the “shrunken log2 fold change” value was 0.06.
RRIRARPPRLPRPRPRPGTWPRP was tested, and the “shrunken log2 fold change” value was 0.161.
RRIRIRPPRLPRPRPRPCTAPRP was tested, and the “shrunken log2 fold change” value was -0.285.
RRIRTRPPRLPRPRPRPVYLPRP was tested, and the “shrunken log2 fold change” value was -1.16.
With RRIRHRPPRLPRPRPRPVGMPRP the “shrunken log2 fold change” value was -0.63.
With RRIRHRPPRLPRPRPRPVCWPRP the “shrunken log2 fold change” value was 0.268.
RRIRARPPRLPRPRPRPSLMPRP was tested, and the “shrunken log2 fold change” value was 0.0307.
With RRIRPRPPRLPRPRPRPSQGPRP the “shrunken log2 fold change” value was -0.418.
With RRIRGRPPRLPRPRPRPTRLPRP the “shrunken log2 fold change” value was 0.939.
With RRIRPRPPRLPRPRPRPIQGPRP the “shrunken log2 fold change” value was -0.128.
With RRIRVRPPRLPRPRPRPNLAPRP the “shrunken log2 fold change” value was 0.0958.
With RRIRSRPPRLPRPRPRPHLTPRP the “shrunken log2 fold change” value was -0.0599.
With RRIRNRPPRLPRPRPRPPSDPRP the “shrunken log2 fold change” value was -0.118.
In the case of RRIRVRPPRLPRPRPRPNGIPRP, the “shrunken log2 fold change” value is reported as -0.161.
In the case of RRIRYRPPRLPRPRPRPFFWPRP, the “shrunken log2 fold change” value is reported as -0.03.
With RRIRGRPPRLPRPRPRPECTPRP the “shrunken log2 fold change” value was 2.08.
In the case of RRIRCRPPRLPRPRPRPWTGPRP, the “shrunken log2 fold change” value is reported as -0.422.
With RRIRDRPPRLPRPRPRPQRVPRP the “shrunken log2 fold change” value was 0.143.
With RRIRKRPPRLPRPRPRPQYWPRP the “shrunken log2 fold change” value was 0.152.
With RRIRIRPPRLPRPRPRPYDCPRP the “shrunken log2 fold change” value was 0.0019.
For RRIRGRPPRLPRPRPRPVIMPRP, the “shrunken log2 fold change” value was 0.258.
With RRIRVRPPRLPRPRPRPVAEPRP the “shrunken log2 fold change” value was 0.104.
For RRIRHRPPRLPRPRPRPTATPRP, the “shrunken log2 fold change” value was 0.39.
RRIRRRPPRLPRPRPRPAELPRP was tested, and the “shrunken log2 fold change” value was -0.0392.
For RRIRTRPPRLPRPRPRPERYPRP, the “shrunken log2 fold change” value was 0.0845.
In the case of RRIRSRPPRLPRPRPRPTNRPRP, the “shrunken log2 fold change” value is reported as -0.362.
With RRIRMRPPRLPRPRPRPNRLPRP the “shrunken log2 fold change” value was 0.0386.
RRIRTRPPRLPRPRPRPQKSPRP was tested, and the “shrunken log2 fold change” value was -0.0823.
With RRIRQRPPRLPRPRPRPWQRPRP the “shrunken log2 fold change” value was -0.0557.
RRIRYRPPRLPRPRPRPPPMPRP was tested, and the “shrunken log2 fold change” value was 0.46.
For RRIRVRPPRLPRPRPRPYVEPRP, the “shrunken log2 fold change” value was -0.132.
With RRIRDRPPRLPRPRPRPFFCPRP the “shrunken log2 fold change” value was 0.55.
In the case of RRIRKRPPRLPRPRPRPQVYPRP, the “shrunken log2 fold change” value is reported as -0.0614.
For RRIRRRPPRLPRPRPRPWQFPRP, the “shrunken log2 fold change” value was -0.0199.
For RRIRSRPPRLPRPRPRPEGPPRP, the “shrunken log2 fold change” value was 0.114.
For RRIRHRPPRLPRPRPRPCGFPRP, the “shrunken log2 fold change” value was 0.134.
RRIRMRPPRLPRPRPRPMKQPRP was tested, and the “shrunken log2 fold change” value was 0.0424.
With RRIRQRPPRLPRPRPRPQIEPRP the “shrunken log2 fold change” value was -0.0133.
With RRIRYRPPRLPRPRPRPVVWPRP the “shrunken log2 fold change” value was -0.00976.
For RRIRLRPPRLPRPRPRPIMCPRP, the “shrunken log2 fold change” value was 0.02.
RRIRWRPPRLPRPRPRPVGTPRP was tested, and the “shrunken log2 fold change” value was 0.235.
With RRIRQRPPRLPRPRPRPYNHPRP the “shrunken log2 fold change” value was -0.047.
With RRIRRRPPRLPRPRPRPEWMPRP the “shrunken log2 fold change” value was 0.126.
For RRIRNRPPRLPRPRPRPCVWPRP, the “shrunken log2 fold change” value was -0.024.
RRIRGRPPRLPRPRPRPWHYPRP was tested, and the “shrunken log2 fold change” value was 0.0232.
For RRIRMRPPRLPRPRPRPICQPRP, the “shrunken log2 fold change” value was 3.43.
In the case of RRIRPRPPRLPRPRPRPCSFPRP, the “shrunken log2 fold change” value is reported as -0.109.
In the case of RRIRPRPPRLPRPRPRPHSSPRP, the “shrunken log2 fold change” value is reported as -0.171.
With RRIRSRPPRLPRPRPRPSVRPRP the “shrunken log2 fold change” value was -0.0911.
For RRIRTRPPRLPRPRPRPCMIPRP, the “shrunken log2 fold change” value was -0.546.
For RRIRCRPPRLPRPRPRPPEVPRP, the “shrunken log2 fold change” value was 0.124.
For RRIRTRPPRLPRPRPRPVMDPRP, the “shrunken log2 fold change” value was -0.478.
RRIRQRPPRLPRPRPRPPDLPRP was tested, and the “shrunken log2 fold change” value was 0.404.
In the case of RRIRDRPPRLPRPRPRPPNTPRP, the “shrunken log2 fold change” value is reported as 0.0945.
With RRIRYRPPRLPRPRPRPTRGPRP the “shrunken log2 fold change” value was 0.543.
With RRIRERPPRLPRPRPRPNAQPRP the “shrunken log2 fold change” value was 0.138.
RRIRYRPPRLPRPRPRPSPDPRP was tested, and the “shrunken log2 fold change” value was -0.0956.
In the case of RRIRVRPPRLPRPRPRPKLIPRP, the “shrunken log2 fold change” value is reported as -0.198.
RRIRWRPPRLPRPRPRPDPEPRP was tested, and the “shrunken log2 fold change” value was 0.159.
With RRIRSRPPRLPRPRPRPEWYPRP the “shrunken log2 fold change” value was 0.341.
With RRIRARPPRLPRPRPRPFQMPRP the “shrunken log2 fold change” value was -0.0651.
With RRIRQRPPRLPRPRPRPCELPRP the “shrunken log2 fold change” value was 0.0039.
RRIRIRPPRLPRPRPRPTFHPRP was tested, and the “shrunken log2 fold change” value was -0.266.
With RRIRGRPPRLPRPRPRPTCDPRP the “shrunken log2 fold change” value was 0.432.
In the case of RRIRKRPPRLPRPRPRPSGGPRP, the “shrunken log2 fold change” value is reported as 0.255.
In the case of RRIRFRPPRLPRPRPRPEASPRP, the “shrunken log2 fold change” value is reported as 0.0218.
With RRIRPRPPRLPRPRPRPGCSPRP the “shrunken log2 fold change” value was 0.266.
For RRIRTRPPRLPRPRPRPHAAPRP, the “shrunken log2 fold change” value was 0.0465.
RRIRSRPPRLPRPRPRPRKFPRP was tested, and the “shrunken log2 fold change” value was 0.015.
With RRIRARPPRLPRPRPRPDLTPRP the “shrunken log2 fold change” value was 0.198.
With RRIRWRPPRLPRPRPRPEGPPRP the “shrunken log2 fold change” value was 0.438.
For RRIRTRPPRLPRPRPRPGKRPRP, the “shrunken log2 fold change” value was 0.0687.
For RRIRWRPPRLPRPRPRPDEYPRP, the “shrunken log2 fold change” value was -0.0763.
In the case of RRIRIRPPRLPRPRPRPNMMPRP, the “shrunken log2 fold change” value is reported as -0.298.
RRIRDRPPRLPRPRPRPWIMPRP was tested, and the “shrunken log2 fold change” value was -0.0114.
RRIRHRPPRLPRPRPRPGYAPRP was tested, and the “shrunken log2 fold change” value was -0.163.
RRIRWRPPRLPRPRPRPSYCPRP was tested, and the “shrunken log2 fold change” value was 0.366.
With RRIRIRPPRLPRPRPRPVWEPRP the “shrunken log2 fold change” value was 0.108.
With RRIRVRPPRLPRPRPRPRSAPRP the “shrunken log2 fold change” value was 0.258.
With RRIRMRPPRLPRPRPRPMVWPRP the “shrunken log2 fold change” value was 1.09.
In the case of RRIRLRPPRLPRPRPRPHEGPRP, the “shrunken log2 fold change” value is reported as -0.00992.
With RRIRGRPPRLPRPRPRPHEIPRP the “shrunken log2 fold change” value was 0.0317.
RRIRFRPPRLPRPRPRPRGIPRP was tested, and the “shrunken log2 fold change” value was -0.123.
For RRIRTRPPRLPRPRPRPVSQPRP, the “shrunken log2 fold change” value was 0.0169.
RRIRKRPPRLPRPRPRPYFCPRP was tested, and the “shrunken log2 fold change” value was -0.288.
For RRIRQRPPRLPRPRPRPRTDPRP, the “shrunken log2 fold change” value was 0.00812.
For RRIRKRPPRLPRPRPRPGAWPRP, the “shrunken log2 fold change” value was 0.364.
RRIRVRPPRLPRPRPRPWHLPRP was tested, and the “shrunken log2 fold change” value was -0.191.
RRIRNRPPRLPRPRPRPFRSPRP was tested, and the “shrunken log2 fold change” value was 0.033.
With RRIRYRPPRLPRPRPRPRHFPRP the “shrunken log2 fold change” value was -0.209.
For RRIRDRPPRLPRPRPRPCTSPRP, the “shrunken log2 fold change” value was -0.000687.
RRIRGRPPRLPRPRPRPSSFPRP was tested, and the “shrunken log2 fold change” value was 0.406.
In the case of RRIRERPPRLPRPRPRPQVIPRP, the “shrunken log2 fold change” value is reported as -0.125.
With RRIRDRPPRLPRPRPRPFDLPRP the “shrunken log2 fold change” value was -0.312.
For RRIRWRPPRLPRPRPRPVGMPRP, the “shrunken log2 fold change” value was 0.456.
For RRIRCRPPRLPRPRPRPMVSPRP, the “shrunken log2 fold change” value was 0.0237.
RRIRNRPPRLPRPRPRPGNVPRP was tested, and the “shrunken log2 fold change” value was -0.107.
For RRIRIRPPRLPRPRPRPEGGPRP, the “shrunken log2 fold change” value was 0.155.
For RRIRTRPPRLPRPRPRPTDSPRP, the “shrunken log2 fold change” value was -0.106.
RRIRRRPPRLPRPRPRPDIQPRP was tested, and the “shrunken log2 fold change” value was 0.0298.
RRIRARPPRLPRPRPRPNRQPRP was tested, and the “shrunken log2 fold change” value was 0.257.
In the case of RRIRERPPRLPRPRPRPVFLPRP, the “shrunken log2 fold change” value is reported as -0.474.
In the case of RRIRRRPPRLPRPRPRPHAWPRP, the “shrunken log2 fold change” value is reported as 0.438.
RRIRYRPPRLPRPRPRPHMMPRP was tested, and the “shrunken log2 fold change” value was -1.6.
RRIRCRPPRLPRPRPRPGLAPRP was tested, and the “shrunken log2 fold change” value was 0.544.
RRIRHRPPRLPRPRPRPKHNPRP was tested, and the “shrunken log2 fold change” value was 0.196.
In the case of RRIRWRPPRLPRPRPRPQFFPRP, the “shrunken log2 fold change” value is reported as -0.134.
With RRIRNRPPRLPRPRPRPPLHPRP the “shrunken log2 fold change” value was 0.0562.
With RRIRVRPPRLPRPRPRPDAFPRP the “shrunken log2 fold change” value was 0.203.
With RRIRNRPPRLPRPRPRPRIDPRP the “shrunken log2 fold change” value was -0.0916.
With RRIRCRPPRLPRPRPRPQKAPRP the “shrunken log2 fold change” value was 0.265.
With RRIRPRPPRLPRPRPRPYAGPRP the “shrunken log2 fold change” value was -0.00254.
In the case of RRIRDRPPRLPRPRPRPAEWPRP, the “shrunken log2 fold change” value is reported as 0.0244.
With RRIRPRPPRLPRPRPRPKTFPRP the “shrunken log2 fold change” value was -0.322.
In the case of RRIRSRPPRLPRPRPRPLRAPRP, the “shrunken log2 fold change” value is reported as 0.858.
For RRIRYRPPRLPRPRPRPIQYPRP, the “shrunken log2 fold change” value was -0.18.
With RRIRGRPPRLPRPRPRPCFVPRP the “shrunken log2 fold change” value was 0.319.
